Data set [1] in a line: flow cytometry and immunofluorescence. The following applies: glycan changed form; control: 231 cells.
Data set [2] in a line: CHX (20 µM) chase, PD-L1 half-life. The following applies: glycan changed form; control: 231 cells.
Data set [3] can be described thus: western blot, flow cytometry, confocal microscopy. The following applies: glycan changed form; control: MCF7 cells.
The nature of data set [4]: western blot of extracellular vesicles. The following applies: glycan changed form; control: 231-EVs.

Turning to PD-L1: 231-MGAT3 (MGAT3 overexpression), the expression_or_secretion result in data set [1] is “decreases”. In data set [2], the degradation_or_half_life result is given as “decreases”. As for PD-L1: MCF7-shM3 (MGAT3 shRNA), the expression_or_secretion entry in data set [3] is reported as “increases”. Consider “PD-L1: 231-MGAT3-EVs (MGAT3 overexpression)”, for which, in data set [4], the expression_or_secretion entry is reported as “decreases”.

These data come from publication PMC12323189.
